Test results: the nanobody polyreactivity screen of Harvey et al. (2022)

Experiment: yeast display, Sf9 membrane polyspecificity reagent, FACS + sequencing; frameworks hold sequencing errors
Summary of the method: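 Genes from sorted yeast were amplified by colony PCR, read by MiSeq 2 × 250 sequencing and filtered on CDR length. These cells carried a synthetic nanobody library in Saccharomyces cerevisiae BJ5465 and were sorted by FACS into low and high (top ~1%) gates on anti-HA and streptavidin fluorescence. Polyreactivity is labelled according to the gate of origin.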

QVQLVESGGGLVQAGGSLRLSCAASGSIFDAYAMGWYRQAPGKERELVAAITTGGGSTYYADSVKGRFTISRDTAKNTVYLQMNSLKPEDTAVYYCARDYGKYKGYYWGQGTQVTVSS
polyreactivity (PSR sort gate): low polyreactivity

QVQLVESGGGLVQAGGSLRLSCAASGRIFAAYAMGWYRQAPGKERELVAAITRRGSTYYADSVKGRFTISRDNDKKTVYFQMNSLKPEDTAVYYCNKVPLFQYSTAWYDYWGQGTQVTVSS
polyreactivity (PSR sort gate): high polyreactivity

QVQLVESGGGLVQAGGSLRLSCAASGSIFFRNAMGWYRQAPGKEREFVAVINYSGGSTRYADSVKGRFTISRDNAKNTVYLQMNSLKPEDTAVYYCATRLYISKMYYWGQGTQVTVSS
polyreactivity (PSR sort gate): high polyreactivity

QDQLVESGGGLVQAGGSLRLSCAASGRTFRKYAMGWYRPAPGKEREFVAAITSSGGSTYYADSVKGRYTISRDNAKNTVYLQMNSLKPEDTAVYYCAAARTSTGTYRYEYWGQGTQVTVSS
polyreactivity (PSR sort gate): high polyreactivity

QVQLVESGGGLVQAGGSLRLSCAASGSIFWGIAMGWYRQAPGTERELVAAISWGGGRTYYADSVKGRFTLSRDNAKNTVYLQMNSLKPEDTAVYYCNTRYPYVVSTGYDYWGQGTQVTVSS
polyreactivity (PSR sort gate): high polyreactivity

QVQLVESGGGLVQAGGSLRLSCAASGSIFRAYAMGWYRQAPGKERELVAAISWGGGSTSYADSVKGRFTISRDNAKNTVYLQMNSLKPEDTAVYYCNKVSLSKRRDYYWGQGTQVTVSS
polyreactivity (PSR sort gate): high polyreactivity

QVQLVESGGGLVQAGGSLRLSCAASGFTFYTYAMGWYRQAPGKERELVAAITSSGGSTYYADSVKGRFTISRDHAKNTVYLQMNSLKPEDTAVYYCKAVSYYLGDDYWGPGTQVTVSS
polyreactivity (PSR sort gate): high polyreactivity

QVQLVESGGGLVQAGGSLRLSCAASRSIFPLYAMGWYRQAPGKERELVAAITYSGGRTYYADSVKGRFTISRDNAKNTVYLQMISLKPEDTAVYYCNTRQRVIDDYWGQGTQVTVSS
polyreactivity (PSR sort gate): high polyreactivity

QVQLVESGGGLVQAGGSLRLSCAASGYTFTIYAMGWSRQAPGKERESVASISIDGSTYYADSVKGRFTISRDNAKNTVYLQMNSLKPEDTAGYYCAADYYYYNPGFDYWGQGTQVTVSS
polyreactivity (PSR sort gate): low polyreactivity

QDQLVESGGGLVQAGGSLRLSCAASGSIFNPYAMGWYRQAPGKERELVAAITSGGYTYADSVKGRFTISRDNAKNTVYLQMNSLKPEDTAVYYCAADRSYVYAGADMYYWGQGTQVTVSS
polyreactivity (PSR sort gate): low polyreactivity

QVQLVESGGGLFQEGGSLRLSCAASGSIFNGYAMGWYRQAPGKEREFVDAITFSATSTYYADSVKRRFTLSRDNAKNTVYLQMNSLKPEDTAVYYCAVAVPLSRYWWRRTYDYWGQGTQVTVSS
polyreactivity (PSR sort gate): low polyreactivity

QVQLVESGGGLVQAGGSLRLTCAASGFTIGYYAMGWYRQAPGKERELVAAISWSGGRTYYADSVKGRFTISRDNAKNTVYLQMNSLKPEDTAVYDCAADGQQTYSGYDYWGQGTQVTVSS
polyreactivity (PSR sort gate): high polyreactivity

QVQLLESCGGLVQAGGSLRLSCAASGGTFQRYAMGWYRQAPGKERELVAAISSGGRTYYADSVKGRFTISRDNAKNTVYLEMNSLKAEDNAVYYCNAVGWTQRGRMFEYWGQGTQVTVSS
polyreactivity (PSR sort gate): high polyreactivity

QVQLVESGGGLVQAGGSLRLSCAASGGTFSYNAMGWYRQAPGKERELVAAISWSGTRTYYADSVKGRFTISRDNAKNTVYLQMNSLKPEDTAVYYCNKTPPNRGRYDYCGQGTQVTVSS
polyreactivity (PSR sort gate): low polyreactivity

QVQLVESGGGLVQAGGSLRLSCAASGSTSVVNTMGWYRQAPGKERELVAAISWSGGSTYYADSVKGRFTISRDNAKNTVYLQMNSLKPEDTAVYYCNAQRNFKSITEYDYWGQGTQVTVSS
polyreactivity (PSR sort gate): high polyreactivity

QVQLVESGGGLVQAGGSLRLSCAASGSTFGYAMGWYRQAPGKERELVAAITSTGGSTYYADSVKGRFTISRDNAKNTVYLQKNSLKPEDTAVYDCAADAYWIRSRFLYRMRSNSWGQGTQVTVSS
polyreactivity (PSR sort gate): high polyreactivity

QVQLVESGGGLVQAGGSLRLSCAASGSTFRVYVMGWYRQAPGKERELVAAISQRGGSTYYADSVKGRFTISRDNAKNTVYLQMNSLKPEDTAVYYCAADQPGARTWSNRESDYWGQGTQVTVSS
polyreactivity (PSR sort gate): high polyreactivity

QVQLEESGGCLVQAGGSLRLSCAASGSTFVYNVMGWYRQAPGKERELVAAITSGVRTYYADSVKGRFTISRDNAKNTVYLQMNSLKPEDTAGYYCATGWRYAKYYYWGQGTQVTVSS
polyreactivity (PSR sort gate): high polyreactivity

QVQLVESGGGLVQAGGSLRLSCAASGSIFSSYAMGWYRQAPGKERELVAAITSGGSTYYADSVKGRFTISRDNAKNTVYLQMNSLKPEDTAVYYCAAYRSYFGYDYWGQGTQVTVSS
polyreactivity (PSR sort gate): low polyreactivity

QVHLVESGGGLVQAGGSLRLSCAASGGIFSYYALGWYRQAPGKERELVAAISSGGTTYYADSVKGRFTISRDNAKNTVYLQMNSLKPEDTAVYYCALLVGHNYWGQGTQVTVSS
polyreactivity (PSR sort gate): low polyreactivity

QVQLVESGGGLVQAGGSLRLSCAASGITFRWYAMGWYRQAPGKERELVAAIRSGSSTYYADSVKGRFTISRDNAKNTVYLQMNSLKPEDPAVYYCNARPWYSWGVDYDYWGQGTQVTVSS
polyreactivity (PSR sort gate): low polyreactivity

QVQLVESGGGLVQAGGSLRLSCAASGFIFADYTMGWYRQAPGKERELVAAITWSGDSTYYADSVKGRFTISRDNAKNTVYLQMNSLKPEDTAVYYCNAVNDWYYAYYGVTSFRSYDYWGQGTQVTVSS
polyreactivity (PSR sort gate): low polyreactivity

QVQLVESGGGLVQAGGSLRLSCAASGLTFAWYAMGWYRQAPGKARELVAVISNGGSTNDADSVKRRFTISRDNAKNTVYLQMNSLKPDDTAVYYCAAGWVWSGNDYYYWGQGTQVTVSS
polyreactivity (PSR sort gate): low polyreactivity

QVQLVESGGGLVQAGGSLRLSCAASGRIFSYNAMGWYRQAPGKERELVAPINTSGGSTYYADSVKGRFTISRDNAKNTVYLHMNSLKPEDTAVYYCNATLPVYWPYYYYQGGDDDWGQGTQVTVSS
polyreactivity (PSR sort gate): low polyreactivity

QVQLVESGGGLVQAGGSLRLSSAASGITFITYAMVWYRQAPGKERELVAAISSSGGSTYYADSVKGRFTFSRDNAKNTVYLKMNSLKPEDTAVYYCAAEYVWYFGWKYGYWGQGTQVTVSS
polyreactivity (PSR sort gate): high polyreactivity

QVQLVESGGGLVQAGGSLRLSCAASGFTFSTNAMGWYRQAPGKERELVAAISWSGSSTYYADSVKGRFTISRDNAKNTVYLQMNSLKPEDTAVYYCAKSRGQADPTYDYWGQGTQVTVSS
polyreactivity (PSR sort gate): low polyreactivity

QVQLVQSGGGLVQAGGSLRLSSAASRSPLGYYALGWYRQAPGKERELVAAISGRGTSPYYADSVKGRFTISRDNAKNTVYVQMNSLKPEDTAVSYCAAQLFRELYWGQGTQVTVSS
polyreactivity (PSR sort gate): high polyreactivity

QVQLVESGGGLVQAGGSLRLSCAASGSNFPINAMGWYRQAPGKERELVAAISWRTGSTNYADSVKGRFTISRDNAMNTVYVQMNSLKPEDTAVFYCAASYATTRQRWLDYWGQGTQVTVSS
polyreactivity (PSR sort gate): high polyreactivity

QVQLVESGGGLVQAGGSLRLSCAASGRTFRSNAMGWYRQAPGKERELVATISRRGVSTYYADSVKGRFTISRDNAKNTVYLLMNSLKPEYTAVYYCTLNVGTTSRWSYDYWGQGNQVTVSS
polyreactivity (PSR sort gate): high polyreactivity

QVQLVESGGGLVQAGGSLRLSCAASGRIFPYYAMGWYRQAPGKERELVAAISQSGGSTNYADSVKGRFTISRDNAKNTVYLQLNSLKPEDTAVYYCNVDVSRSWAQPYTYDYWGQGTQVTVSS
polyreactivity (PSR sort gate): low polyreactivity

QVQLVESGGGLVQAGGSLRLSCAASGRILPWYAMGWYRQAPWKERELVAGISSNGGSTYYADSVKGRFTSSRDNPKNTVYLQMNSLKTEDTAVYYCAARVWYWRHYPSDYWGQGTQVTVSS
polyreactivity (PSR sort gate): high polyreactivity

QVQLVESGGGLVQAGGSLRLSCAASGFTFDKYAMGWYRQAPGKERELVAAISGSGGTTYYADSVKGRFTISRDNAKNTVYLQMNSLKPEDTAVYYCATRLYSIYSYGYWGQGTQVTVSS
polyreactivity (PSR sort gate): high polyreactivity

QVQLVESGGGLVQAGGSLRLSCAASGFIFYYNVMGWYRQAPGKERELVAAIRYRGTITYYADSVKGRFTISRDNAKNTVYLQMNSLKPEDTAVYYCARRQRNYYRSSPGGDYWGQGTQVTVSS
polyreactivity (PSR sort gate): low polyreactivity

QVQLVESGGGLVQAGGSLRLSCAASGSTFEYYAMGWYRQAPGKEREFVAAITLSGGRTYYADSVKGRFTISRDNAKNTVYLQMNSLKPEDTAVYYCNVVVTWWLPSEYDYWGQGTQVTVSS
polyreactivity (PSR sort gate): high polyreactivity

QVQLVESGGGLVQAGGSLRLSCAASGRTFKYKAMGWYRQAPGKERELVDAISSDDSTNYADSVKGRFTISRDKAQNTVYLQMNSLKPEDTAVYYCAARYGYSKWPDRVQAYKHDYWGQGTQVTVSS
polyreactivity (PSR sort gate): low polyreactivity

QVQLVESGGGLVQAGGSLRLSCAASGSTFYPYAMGWYRQAPGKERELVAAISSGGSTSYADSVKGRFTISRDNAKNTVYLQMNSLKPEDTAVYYCNASSPGAVPVYDYDYWGQGTQVTVSS
polyreactivity (PSR sort gate): low polyreactivity

QVQLVESGGGLVQAGGTLRLSCAASGSIFGNYAMGWDRQAPGKERELVAGISKSGGRTYYADSVKGRFTISRDNAKNTVYLQMNSLKPEDTAVYYCNALVTRYQSLDRLGDYWGQGTQVTVSS
polyreactivity (PSR sort gate): high polyreactivity

QVQLVESGGGLVQAGGSLRLSCAASGFIFRYNAMGWYRQAPGKERELVAAISSSGGSTYYADSVKGRFTISRDNAKNTVYVQMNSLKPEDTAVDYCNAYNYGYIGYGYNYWGQGTQVTVSS
polyreactivity (PSR sort gate): high polyreactivity

QVQLVESGGALVQAGGSLRLSCAASGSTVKYYAMGWYRQAPGKERELVATSSSGGSTNYADSVKRRFTISRDNAKNTVYLQRNSLKPEDTAVYYCAAYSTWRRIQFWGYNYWGQGTQVTVSS
polyreactivity (PSR sort gate): high polyreactivity

QVQLVESGGGLVQAGGSLRLSCAASGSIFRPYAMGWYRQAPGTERELVAAITWSGGRTYYADSVKGRFTISRDTAKNTVYLQMNSLKPDDTAVYYCAADDSEGFDYWGQGTQVTVSS
polyreactivity (PSR sort gate): high polyreactivity

QVQLVESGGGLVQAGGSLRLSCAASGRTFWNYAMGWYRQAPGKERELVAVIRFSDGSTYYSDSVKGRFTISRDKAKNTVYLQMNSLKPEDTAVYYCGAKGPRRWGSGFDYWGQGTQVNVSS
polyreactivity (PSR sort gate): low polyreactivity

QVQLVESGGGLVQAGGSLRLSCAASGITFYVYAMGWYRQAPGKERELVAAISGSGGNTYYADSVKGRFTISRDNAKNTVYVQMNSLKPEDTAVYYCNADDHSPYYCDLDYWGQGTQVTVSS
polyreactivity (PSR sort gate): low polyreactivity

QVQHVESGGGLVQAGGSLRLSCAASGLTFANYVMGWYRQAPGKERELVASISISGGSTYYADSVKGRFTISRDNAKNTVYLQMNSLKPEDTAVYYCAASFVSSYQYDYWGQGTQVTVSS
polyreactivity (PSR sort gate): high polyreactivity
